Test results reported in patent US20240270846A1 (published 2024).
Each block holds one binder with its values, some of them ahead of it. Where no end group is shown, it is not given here.

Assays:
[1] = biological target: human CD137 expressed on cells (human, UniProt Q07011 24-255); assay: cell-based or functional assay
[2] = biological target: T1, CD3 epsilon peptide antigen (human, also: biotin-labeled as coated antigen, free as competitor, biotin position not given here); assay: ECL, IgG with biotinylated antigen
T1 construct: also called biotin-labeled CD3 epsilon peptide; CD3 peptide
T1 peptide: QDGNEEMGGITQTPY

[3] = biological target: T2, biotin-labeled human CD137 fused to human IgG1 Fc fragment (human, biotin-labeled); assay: ECL, IgG with biotinylated antigen
T2 construct: also called human CD137-Fc; biotin-human CD137-Fc
T2 sequence (chain, as listed by the source limits assumed): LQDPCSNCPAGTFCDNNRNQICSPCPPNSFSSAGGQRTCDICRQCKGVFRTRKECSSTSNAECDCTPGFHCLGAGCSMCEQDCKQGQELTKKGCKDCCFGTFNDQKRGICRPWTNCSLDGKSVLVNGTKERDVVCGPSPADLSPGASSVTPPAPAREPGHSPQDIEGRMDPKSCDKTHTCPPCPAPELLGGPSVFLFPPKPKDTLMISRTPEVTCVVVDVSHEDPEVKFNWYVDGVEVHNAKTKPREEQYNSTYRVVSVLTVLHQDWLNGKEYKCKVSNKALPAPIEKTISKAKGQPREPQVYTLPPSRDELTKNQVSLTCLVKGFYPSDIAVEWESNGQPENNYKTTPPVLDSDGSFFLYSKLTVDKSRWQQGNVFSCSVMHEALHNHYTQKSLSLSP
Description: Antigen binding of each molecule was tested by the electrochemiluminescence method (ECL method). […] A TBST solution containing 0.5% BSA was added at 150 micro L/well to streptavidin plate (MSD K. K., L15SA-1), and the plate was incubated overnight at 4 degrees C. After removal of the blocking solution, each well was washed three times with 250 micro L of a TBST solution.

recombinant human CD3 = biological target: T3, recombinant human CD3 (human, UniProt P07766 23-126); assay: SPR (Biacore T200, 37 degrees C), antibody captured by anti-human Fc, antigen as analyte, 1:1 model
T3 construct: also called hCD3
T3 sequence (P07766 23-126): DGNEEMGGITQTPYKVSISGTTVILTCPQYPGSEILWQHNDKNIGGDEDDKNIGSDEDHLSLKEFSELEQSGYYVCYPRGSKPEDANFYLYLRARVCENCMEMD
Description: (§1) Binding affinity of trispecific antibodies to human CD3 and CD137 were assessed at 37 degrees C. using Biacore T200 instrument (GE Healthcare). Anti-human Fc antibody (GE Healthcare) was immobilized onto all flow cells of a CM4 sensor chip using amine coupling kit (GE Healthcare). Antibodies were captured onto the anti-Fc sensor surfaces, then recombinant human CD3 or CD137 was injected over the flow cell. All antibodies and analytes were prepared in ACES pH 7.4 containing 20 mM ACES, 150 mM NaCl, 0.05% Tween 20, 0.005% NaN3. Sensor surface was regenerated each cycle with 3M MgCl2.

recombinant human CD137 = biological target: T4, recombinant human CD137 (human, UniProt Q07011 24-186); assay: as above
T4 construct: also called hCD137
T4 sequence (Q07011 24-186 limits assumed): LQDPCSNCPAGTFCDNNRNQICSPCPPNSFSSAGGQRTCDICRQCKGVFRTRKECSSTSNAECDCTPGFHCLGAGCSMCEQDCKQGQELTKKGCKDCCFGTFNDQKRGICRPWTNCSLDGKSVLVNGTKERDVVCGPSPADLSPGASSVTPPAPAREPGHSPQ
Description: as §1

[4] = biological target: T5, biotin-labeled cynomolgus monkey CD137 fused to human IgG1 Fc fragment (cynomolgus monkey, UniProt Q07011 24-186 (human entry), limits assumed, biotin-labeled); assay: beads ELISA, biotin labeled cyno CD137-Fc
T5 construct: the assay used the fusion to human IgG1 Fc; also called cyno CD137-Fc
T5 chain: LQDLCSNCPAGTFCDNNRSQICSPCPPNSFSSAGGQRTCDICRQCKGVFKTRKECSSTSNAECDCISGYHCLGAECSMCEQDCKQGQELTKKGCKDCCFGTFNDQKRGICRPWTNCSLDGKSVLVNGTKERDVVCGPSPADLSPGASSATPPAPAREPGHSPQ
Description: First, 20 micro g of Streptavidin-coated magnetic beads MyOne-T1 beads was washed three-times with blocking buffer including 0.5× block Ace, 0.02% Tween and 0.05% ProClin 300 and then blocked with this blocking buffer at room temperature for 60 minutes or more. […] After that each well was washed with TBST. […] The plate was incubated for one hour. […] 2 minutes later the fluorescence of each well was detected.

[5] = biological target: T1, CD3 epsilon peptide antigen; assay: ELISA, IgG supernatant, biotinylated antigen on streptavidin plate

Sequence of human CD137 expressed on cells (Q07011 24-255): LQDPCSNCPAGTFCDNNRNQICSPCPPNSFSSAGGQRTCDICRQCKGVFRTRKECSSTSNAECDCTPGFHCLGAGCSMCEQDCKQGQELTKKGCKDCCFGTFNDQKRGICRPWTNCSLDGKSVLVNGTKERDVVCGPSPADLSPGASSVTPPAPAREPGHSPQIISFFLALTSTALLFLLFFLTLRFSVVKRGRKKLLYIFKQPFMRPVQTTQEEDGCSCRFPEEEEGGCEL

Luminescence against CD137 positive cells relative to that against GPC3 positive cells, 1 nM [1]: ~107%
Luminescence against CD137 positive cells relative to that against GPC3 positive cells, 10 nM [1]: ~128%
B1: GPC3/CD137 × CD3 (other)
VH 1: QVQLQQWGAGLLKPSETLSLTCAVYGGSFSGYYWSWIRQSPEKGLEWIGEINHGGYVTYNPSLESRVTISVDTSKNQFSLKLSSVTAADTAVYYCARDYGPGNYDWYFDLWGRGTLVTVSS
VL 1: EIVLTQSPATLSLSPGERATLSCRASQSVSSYLAWYQQKPGQAPRLLIYDASNRATGIPARFSGSGSGTDFTLTISSLEPEDFAVYYCQQRSNWPPALTFGGGTKVEIK
VH 2: QVQLVESGGGLVQPGRSLRLSCAASGFTFSNAWMHWVRQAPGKGLEWVAQIKDRANSYNTYYAESVKGRFTISRDDSKNSIYLQMNSLKTEDTAVYYCRYVHYTTYAGSSFSYGVDAWGQGTTVTVSS
VL 2: DIVMTQSPLSLPVTPGEPASISCRSSQPLVHSNRNTYLHWYQQKPGQAPRLLIYKVSNRFSGVPDRFSGSGSGTDFTLKISRVEAEDVGVYYCGQGTQVPYTFGQGTKLEIK
VH 3: QVQLVQSGAEVKKPGASVTVSCKASGYTFTDYEMHWIRQPPGEGLEWIGAIDGPTPDTAYSEKFKGRVTLTADKSTSTAYMELSSLTSEDTAVYYCTRFYSYTYWGQGTLVTVSS
VL 3: DIVMTQSPLSLPVTPGEPASISCRSSQPLVHSNRNTYLHWYQQKPGQAPRLLIYKVSNRFSGVPDRFSGSGSGTDFTLKISRVEAEDVGVYYCGQGTQVPYTFGQGTKLEIK

binding result [2]: binds
binding result [3]: binds
B2: dBBDu_011 (antibody, V domains shown)
VH: QVQLVESGGGLVQPGRSLRLSCAASGFTFSNAWMHWVRQAPGKGLEWVAQIKDKSSLYNTYYAPSVKGRFTISRDDSKNSIYLQMNSLKTEDTAVYYCRYVHYGASYGFLFAGYGVDAWGQGTTVTVSS
VL: DIVMTQSPLSLPVTPGEPASISCRSSQSLVHSNRNTYLHWYQQKPGQAPRLLIYKVSNRFSGVPDRFSGSGSGTDFTLKISRVEAEDVGVYYCGQGTQVPYTFGQGTKLEIK
notes: Converted to IgG: VH joined to human IgG1 constant domains; also called clone 011

Kd (recombinant human CD3): 19.7 nM
koff (recombinant human CD3): 0.00161 s⁻¹
kon (recombinant human CD3): 81800 M⁻¹ s⁻¹
Kd (recombinant human CD137): 37.7 nM
koff (recombinant human CD137): 0.0206 s⁻¹
kon (recombinant human CD137): 547000 M⁻¹ s⁻¹
B3: GPC3/CD137xCD3 trispecific antibody (other)
VH 1: QVQLQQWGAGLLKPSETLSLTCAVYGGSFSGYYWSWIRQSPEKGLEWIGEINHGGYVTYNPSLESRVTISVDTSKNQFSLKLSSVTAADTAVYYCARDYGPGNYDWYFDLWGRGTLVTVSS
VL 1: EIVLTQSPATLSLSPGERATLSCRASQSVSSYLAWYQQKPGQAPRLLIYDASNRATGIPARFSGSGSGTDFTLTISSLEPEDFAVYYCQQRSNWPPALTFGGGTKVEIK
VH 2: QVQLVESGGGLVQPGRSLRLSCAASGFTFSNAWMHWVRQAPGKGLEWVAQIKDRANSYNTYYAESVKGRFTISRDDSKNSIYLQMNSLKTEDTAVYYCRYVHYTTYAGSSFSYGVDAWGQGTTVTVSS
VL 2: DIVMTQSPLSLPVTPGEPASISCRSSQPLVHSNRNTYLHWYQQKPGQAPRLLIYKVSNRFSGVPDRFSGSGSGTDFTLKISRVEAEDVGVYYCGQGTQVPYTFGQGTKLEIK
VH 3: QVQLVQSGAEVKKPGASVTVSCKASGYTFTDYEMHWIRQPPGEGLEWIGAIDGPTPDTAYSEKFKGRVTLTADKSTSTAYMELSSLTSEDTAVYYCTRFYSYTYWGQGTLVTVSS
VL 3: DIVMTQSPLSLPVTPGEPASISCRSSQPLVHSNRNTYLHWYQQKPGQAPRLLIYKVSNRFSGVPDRFSGSGSGTDFTLKISRVEAEDVGVYYCGQGTQVPYTFGQGTKLEIK
notes: Made by Fab-arm exchange of mAb A (CrossMab, each arm carrying Fv A1 and Fv A2) with mAb B (conventional IgG); Fc is Fc gamma R silent (L235R, G236R, S239K) and deglycosylated (N297A); also called GPC3/CD137 × CD3; anti-GPC3/CD137×CD3

B4: DADU01_3 #001 (antibody, human IgG1, V domains shown)
VH: QVQLVESGGGLVQPGRSLRLSCAASGFTFSIAWMHWVRQAPGKGLEWVAQIKDRVNAYEAYYAPSVKGRFTISRDDSKNSIYLQMNSLKTEDTAVYYCRYVHYASYYDLLGYGGVDAWGQGTTVTVSS
VL: DIVMTQSPLSLPVTPGEPASISCRSSQSLVHSNRNTYLHWYQQKPGQAPRLLIYKVSNRFSGVPDRFSGSGSGTDFTLKISRVEAEDVGVYYCGQGTQVPYTFGQGTKLEIK
notes: VH in human IgG1 CH1-Fc plasmid; GLS3000 light chain; also called dBBDu_126; dBBDu126
binding result [4]: no binding (tested: 25 micro L of 50 ng/micro L purified IgG)

binding result [5]: binds
B5: dBBDu_115 (antibody, IgG1, V domains shown)
VH: QVQLVESGGGLVQPGRSLRLSCAASGFTFSNAWMHWVRQAPGKGLEWVAQIKDKANSYNTYYAPSVKGRFTISRDDSKNSIYLQMNSLKTEDTAVYYCRYVHYGSSYGFLFAGYGVDAWGQGTTVTVSS
VL: DIVMTQSPLSLPVTPGEPASISCRSSQSLVHSNRNTYLHWYQQKPGQAPRLLIYKVSNRFSGVPDRFSGSGSGTDFTLKISRVEAEDVGVYYCGQGTQVPYTFGQGTKLEIK
notes: IgG1 format with GLS3000 light chain
